Bridge positions count the residues as written; N and C are the ends. Peptide text beside a SMILES is read from it.
Columns and labels:
IGF-1 = biological target: T1, IGF-1 (Homo sapiens, UniProt P05019); test: Affinity measurement by monovalent phage ELISA (phage competition IC50); format: binding; conditions: positive second generation clones
T1 construct: made in house
Experimental: E. coli XL1-Blue harboring phagemids were grown overnight at 37° C. in 2YT, 50 μg/mL carbenicillin, 10 μg/mL tetracycline and M13-VCS helper phage (10^10 phage/mL). Phage were harvested from the culture supernatant by precipitation twice with PEG/NaCl and resuspended in phosphate-buffered saline, 0.2% BSA, 0.1% TWEEN®-20 detergent (BSA blocking buffer). Phage concentrations were determined spectrophotometrically (λ268=1.2×10^8 M^−1 cm^−1).
MAXISORP™ immunoplates (96-well) were coated with capture target protein for 2 hours at room temperature (100 μL at 5 μg/mL in 50 mM carbonate buffer, pH 9.6). The plates were then blocked for 1 h with 0.2% BSA in phosphate-buffered saline (PBS) and washed eight times with PBS, 0.05% TWEEN®-20 detergent. Phage particles were serially diluted into BSA blocking buffer and 100 μL were transferred to coated wells. After 1 h, plates were washed eight times with PBS, 0.05% TWEEN®-20 detergent, incubated with 100 μL of 1:3000 horse radish peroxidase/anti-M13 antibody conjugate in BSA blocking buffer for 30 min, and then washed eight times with PBS, 0.05% TWEEN®-20 detergent and two times with PBS. Plates were developed using a tetramethylbenzidine substrate (TMB, Kirkegaard and Perry, Gaithersburg, Md.), stopped with 1.0 M H3PO4, and read spectrophotometrically at […].
Affinity Measurement by Monovalent Phage ELISA
Phage ELISAs were carried out as described above, using plates coated with IGF-1. Peptide-displaying phage were serially diluted and binding was measured to determine a phage concentration giving <50% of the ELISA signal at saturation.
A fixed, subsaturating concentration of peptide-phage was mixed with serial dilutions of IGF-1 and incubated for 1.0 hr and then transferred to assay plates coated with IGF-1. After 30-min incubation, the plates were washed and developed as described above. The binding affinities of the peptides for IGF-1 were determined as IC50 values where the IC50 value is defined as the concentration of IGF-1 that blocked 50% of the peptide-phage binding to the immobilized IGF-1.

[1] = tested on: human insulin receptor (hIR); test: Cell-based insulin KIRA assay (kinase receptor activation); conditions: Chinese hamster ovary cells transfected with hIR; peptides incubated with 25 nm IGF-1 for 1 hr; 15 min stimulation
Experimental: Cell-Based Insulin KIRA Assay of IGF-1 Binding Peptide Activity
A kinase receptor activation assay (KIRA) (Sadick et al., J. Pharm. Biomed. Anal., 19, 883-891 (1999)) for measuring phosphorylation of human insulin receptor (hIR) was developed using Chinese hamster ovary cells transfected with the hIR. (TRY-1R 5.3) Cells were grown overnight in 96-well plates with medium (PS/20) at 37° C. Supernatants were decanted and stimulation media (PS/20 and 0.5% BSA) containing either peptide samples (peptides incubated with 25 nm IGF-1 for 1 hr), experimental controls (IGF Bp1 incubated with IGF-1 for 1 hr), and 25 nm rhIGF-1 standards were added. After fifteen minute stimulation at 37° C., stimulation solutions were removed and cells were lysed with a buffer containing 50 mM HEPES, 150 mM NaCl, 0.5% Triton-X-100™ octylphenyl ethylene oxide condensate, 1 mM AEBSF, aprotinin and 0.05 mM leupeptin, and 2 mM sodium orthovanadate. Lysates were frozen at −70° C. for ELISA. Immunosorbant plates were coated with 2 μg/ml insulin receptor Ab-2 (clone 83-7) in PBS at pH 7.0 overnight at 4° C. The plate was blocked and washed as above. Cell lysates containing transfected hIR were incubated on the capture ELISA plates for 2 hrs. After removing unbound receptor by washing, biotinylated anti-phosphotyrosine 4G10 (Upstate Biologicals Inc.) was added to detect activated receptor. After 2 hrs, the plates were developed with streptavidin conjugated to HRP and TMB substrate as above.

[2] = tested on: human type 1 IGF-1 receptor; test: Cell-based IGF-1 KIRA assay; conditions: MCF-7 cells; peptides preincubated 30 min with 2 nm IGF-1; 15-minute stimulation
Experimental: Cell-Based IGF-1 KIRA Assay
A KIRA for measuring the activation of the human type 1 IGF-1 receptor was performed using human MCF-7 cells (as described above). Cells were grown overnight in 96-well plates with medium (50:50 F12/DMEM, Gibco). Supernatants were decanted, and stimulation media (50:50 F12/DMEM with 25 mM HEPES and 2.0% BSA) containing either controls (2 nM IGF-1 preincubated with IGF Bp1 or Bp3) or experimental samples (Peptides preincubated for 30 min. with 2 nm IGF-1) were added. After 15-minute stimulation the cells were lysed, and added to the polyclonal anti-IGF-R (3B7 Santa Cruz Biotech) coated overnight on immunosorbant plates. The detection ELISA was performed as above.

T1 sequence (P05019 49-118 limits assumed): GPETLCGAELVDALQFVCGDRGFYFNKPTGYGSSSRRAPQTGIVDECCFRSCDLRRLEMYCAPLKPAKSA

Molecule	IC50 (IGF-1) [µM]	IC50 [1] [µM]	IC50 [2] [µM]
F1-C (RNCFESVAALRRCMY; Sequence is synthesized) [Peptide F1-C]	0.108		
F1-H (MDCLASVEALKWCMY; Sequence is synthesized) [Peptide F1-H]	0.147		
F1-B (FGCYESVAALRTCMY; Sequence is synthesized) [Peptide F1-B]	0.301		
CC(C)[C@@H]1NC(=O)[C@@H](NC(=O)[C@H](CCCNC(=N)N)NC(=O)[C@H](C)N)CSSC[C@@H](C(=O)N[C@@H](Cc2c[nH]c3ccccc23)C(=O)N[C@@H](C)C(=O)NCC(=O)O)NC(=O)[C@H](Cc2ccc(O)cc2)NC(=O)[C@H](Cc2c[nH]c3ccccc23)NC(=O)[C@H]([C@@H](C)O)NC(=O)CNC(=O)CNC(=O)[C@H](C)NC(=O)[C@H](CC(=O)O)NC(=O)[C@H](C(C)C)NC1=O [Peptide F2-P, ARCVVDAGGTWYCWAG] (H-ARCVVDAGGTWYCWAG-OH; disulfide 3-13)		300	
F2-B (VRCAYDAGGSRYCWE; Sequence is synthesized) [Peptide F2-B]	24.6		
F2-A (GGCASDLAGFRYCWE; Sequence is synthesized) [Peptide F2-A]	1.33		
CSCC[C@H](NC(=O)[C@@H]1CSSC[C@H](NC(=O)[C@H](CCC(=O)O)NC(=O)[C@@H](N)CC(=O)O)C(=O)N[C@@H](CC(C)C)C(=O)N[C@@H](CCSC)C(=O)N[C@@H](CO)C(=O)N[C@@H](C(C)C)C(=O)N[C@@H](CCC(=O)O)C(=O)N[C@@H](C)C(=O)N[C@@H](CC(C)C)C(=O)N[C@@H](CCCCN)C(=O)N[C@@H](CC(N)=O)C(=O)N1)C(=O)NCC(=O)NCC(=O)O [Peptide F1-P, DECLMSVEALKNCMGG] (H-DECLMSVEALKNCMGG-OH; disulfide 3-13)		183	400
F1-A (HPCLESVGALKACMY; Sequence is synthesized) [Peptide F1-A]	0.401		
F1-F (FECLTSVEALRGCMY; Sequence is synthesized) [Peptide F1-F]	0.286		
F1-E (SDCFGSVEALKMCMY; Sequence is synthesized) [Peptide F1-E]	0.711		
F2-C (VKCARDLSGFVYCWA; Sequence is synthesized) [Peptide F2-C]	10000		
F1-G (SDCFESVEALRACMY; Sequence is synthesized) [Peptide F1-G]	0.968		
CC(C)C[C@@H]1NC(=O)[C@H](CC(=O)O)NC(=O)[C@H](CC(=O)O)NC(=O)[C@H](C(C)C)NC(=O)[C@@H](NC(=O)[C@H](CCCNC(=N)N)NC(=O)[C@@H](N)Cc2c[nH]c3ccccc23)CSSC[C@@H](C(=O)N[C@@H](Cc2c[nH]c3ccccc23)C(=O)N[C@@H](C)C(=O)NCC(=O)O)NC(=O)[C@H](Cc2ccc(O)cc2)NC(=O)[C@H](CCC(N)=O)NC(=O)[C@H](Cc2ccccc2)NC(=O)CNC(=O)CNC1=O [Peptide F2-2, WRCVDDLGGFQYCWAG] (H-WRCVDDLGGFQYCWAG-OH; disulfide 3-13 (inferred); N-terminus and C-terminus assumed)		93.6	130
CC(C)C[C@@H]1NC(=O)[C@H](CC(=O)O)NC(=O)[C@H](CO)NC(=O)[C@H](C)NC(=O)[C@@H](NC(=O)CNC(=O)[C@@H](N)CC(C)C)CSSC[C@@H](C(=O)N[C@@H](Cc2c[nH]c3ccccc23)C(=O)N[C@@H](C)C(=O)NCC(=O)O)NC(=O)[C@H](Cc2ccc(O)cc2)NC(=O)[C@H](Cc2c[nH]c3ccccc23)NC(=O)[C@H](Cc2ccccc2)NC(=O)CNC(=O)[C@H](C)NC1=O [Peptide F2-1, LGCASDLAGFWYCWAG] (H-LGCASDLAGFWYCWAG-OH; disulfide 3-13 (inferred); N-terminus and C-terminus assumed)		40.4	

The next lines start with results.

IC50 (IGF-1) [µM]	Molecule	IC50 [1] [µM]	IC50 [2] [µM]
1.04	F2-M (WRCAQDAGGWTYCWA; Sequence is synthesized) [Peptide F2-M]		
4.36	F2-L (ARCARDAGGFYYCWA; Sequence is synthesized) [Peptide F2-L]		
0.319	F2-H (WRCVDDLGGFQYCWA; Sequence is synthesized) [Peptide F2-H]		
249	F2-D (VRCAWDLGGRAYCWA; Sequence is synthesized) [Peptide F2-D]		
1.45	F2-K (YRCATDLAGFSYCWA; Sequence is synthesized) [Peptide F2-K]		
0.986	F2-G (ASCVADAGGGGYCWD; Sequence is synthesized) [Peptide F2-G]		
0.554	F2-E (LGCASDLAGFWYCWA; Sequence is synthesized) [Peptide F2-E]		
209	F2-F (FRCAWELGWLYVLGL; Sequence is synthesized) [Peptide F2-F]		
1.18	F2-N (WRCVTDAGGRPYCWA; Sequence is synthesized) [Peptide F2-N]		
1.03	F2-I (VTCAADALGFLYCWE; Sequence is synthesized) [Peptide F2-I]		
2.12	F2-J (LRCAEDLGGYFYCWA; Sequence is synthesized) [Peptide F2-J]		

— patent publication US20060149033A1, “IGF antagonist peptides” (GENENTECH, INC., priority 2001, published 2006)
